From patent US20150259426A1 (Novartis, published 2015)
Where a chain is given by its changes, count along the chain named. Where two headings read alike, the source gives them in different places.

Experiments:
[1] = target: T1, short (182 amino acids) human DR5-Fc fusion protein (R&D Systems, catalogue #631-T2/CF) (human, UniProt O14763 56-210); experiment: SPR (Biacore), CM5 chip coated with human DR5-Fc, 1 to 100 nM NB construct
T1 construct: bought; not shown: Fc part of the bought fusion protein; not described

[2] = target: T2, cell-bound human DR5 (Colo205 and other human cell lines) (human, UniProt O14763 56-440); experiment: cell-based or functional assay
[3] = target: T2, cell-bound human DR5 (Colo205 and other …); experiment: cell-based or functional assay; remark: listed apart in the source
[4] = target: T3, cynomolgus DR5-Fc fusion protein (cyno DR5 amino acids 56 to 213 fused with human IgG1 Fc) (cynomolgus; human); experiment: SPR (Biacore), CM5 chip coated with cynomolgus DR5-Fc, 1 to 100 nM NB construct
[5] = target: T2, cell-bound human DR5 (Colo205 and other …); experiment: cell-based or functional assay; remark: listed apart in the source
[6] = target: T2, cell-bound human DR5 (Colo205 and other …); experiment: cell-based or functional assay; remark: listed apart in the source
[7] = target: T2, cell-bound human DR5 (Colo205 and other …); experiment: cell-based or functional assay; remark: listed apart in the source
[8] = target: T4, cell-bound cynomolgus DR5 (CHO-K1 cells transfected with the full length cynoDR5 gene) (cynomolgus); experiment: FACS, periplasmic extract on CHO-K1 cells expressing cynomolgus DR5, anti-myc detection
T4 construct: whole, on cells

[9] = target: T3, cynomolgus DR5-Fc fusion protein (cyno …); experiment: ELISA, periplasmic extract, plate coated with cynomolgus DR5-Fc, anti-myc detection
[10] = target: T2, cell-bound human DR5 (Colo205 and other …); experiment: FACS, periplasmic extract on Colo205 cells, anti-myc detection
[11] = target: cynomolgus DR5 (construct used not stated) (cynomolgus); experiment: SPR kinetics, cynomolgus DR5
[12] = target: T5, DR5-61 (human DR5 residues 61 to 183, gp67DR5l61-s183-PH) (human); experiment: complex isolated by gel filtration, then crystallized
T5 construct: expressed in SF9 cells, cleaved with PreScission protease
T5 chain: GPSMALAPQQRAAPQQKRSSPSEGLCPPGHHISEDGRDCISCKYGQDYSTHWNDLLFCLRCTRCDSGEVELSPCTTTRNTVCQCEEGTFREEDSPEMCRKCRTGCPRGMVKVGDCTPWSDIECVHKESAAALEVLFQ

[13] = target: T6, DR5-54 (human DR5 residues 54 to 183, gp67DR5a54-s183-PH) (human, UniProt O14763 54-183); experiment: as above
T6 construct: expressed in SF9 cells, cleaved with PreScission protease; the complex with 11H6 was treated with trypsin before crystallization

[14] = target: T4, cell-bound cynomolgus DR5 (CHO-K1 cells …); experiment: FACS saturation binding, apparent KD, cell-bound cynomolgus DR5
[15] = target: T2, cell-bound human DR5 (Colo205 and other …); experiment: FACS saturation binding, apparent KD, cell-bound human DR5
[16] = target: cynomolgus DR5 (construct used not stated) (cynomolgus); experiment: SPR kinetics (Biacore), cynomolgus DR5

B1: 10F1 tetra (tetravalent anti-DR5 NB construct) (other)
chain: EVQLVESGGGLVQPGGSLRLSCAASGFTFSRYWMYWVRQAPGKGLEWVSAINSGGGDTYYRDSVRGRFTISRDNFKNTLYLQMNSLKSEDTAVYYCAKAEGPPTFSLIRTMTVDPGAQGTQVTVSSGGGGSGGGGSGGGGSGGGGSGGGGSGGGGSGGGGSEVQLVESGGGLVQPGGSLRLSCAASGFTFSRYWMYWVRQAPGKGLEWVSAINSGGGDTYYRDSVRGRFTISRDNFKNTLYLQMNSLKSEDTAVYYCAKAEGPPTFSLIRTMTVDPGAQGTQVTVSSGGGGSGGGGSGGGGSGGGGSGGGGSGGGGSGGGGSEVQLVESGGGLVQPGGSLRLSCAASGFTFSRYWMYWVRQAPGKGLEWVSAINSGGGDTYYRDSVRGRFTISRDNFKNTLYLQMNSLKSEDTAVYYCAKAEGPPTFSLIRTMTVDPGAQGTQVTVSSGGGGSGGGGSGGGGSGGGGSGGGGSGGGGSGGGGSEVQLVESGGGLVQPGGSLRLSCAASGFTFSRYWMYWVRQAPGKGLEWVSAINSGGGDTYYRDSVRGRFTISRDNFKNTLYLQMNSLKSEDTAVYYCAKAEGPPTFSLIRTMTVDPGAQGTQVTVSS
notes: four VHH units in one chain joined by GlySer linkers; not shown: C-terminal c-myc/His6 tag from vector pAX51
[1]
  Kd: 0.0039 nM
[2]
  IC50, cell survival, 184A1: ≥ 20 nM
  IC50, cell survival, A549: ≥ 20 nM
  IC50, cell survival, ARPE-19: ≥ 20 nM
  IC50, cell survival, BxPC-3: 0.003 nM
  IC50, cell survival, Colo205: 0.002 nM
  IC50, cell survival, H226: 0.024 nM
  IC50, cell survival, H2052: 0.004 nM
  IC50, cell survival, H2122: 0.001 nM
  IC50, cell survival, HAAE-1: ≥ 20 nM
  IC50, cell survival, Huvec: ≥ 20 nM
  IC50, cell survival, Jurkat: 0.003 nM
  IC50, cell survival, M30: ≥ 20 nM
  IC50, cell survival, Malme-3: ≥ 20 nM
  IC50, cell survival, MiaPaCa-2: 0.028 nM
  IC50, cell survival, Molt4: 0.002 nM
  IC50, cell survival, Panc-1: 0.009 nM
  IC50, cell survival, WI-38: ≥ 20 nM
[3]
  EC50, caspase 3/7 in Colo205 tumor after a single dose in mice, indirect response model: 0.365 ng/mg tissue
[4]
  Kd: 0.022 nM

B2: 4E6-Hu tetra (4E6 hu tetramer) (other)
chain: EVQLLESGGGLVQPGGSLRLSCAASGRTFGSIRVGWFRQAPGKGREFVSAINRNDGTTYYADSVKGRFTISRDNSKNTVYLQMNSLRPEDTAVYYCAAGLQYNRAADRVPVGAVYWGQGTLVTVSSGGGGSGGGGSGGGGSGGGGSGGGGSGGGGSGGGGSEVQLLESGGGLVQPGGSLRLSCAASGRTFGSIRVGWFRQAPGKGREFVSAINRNDGTTYYADSVKGRFTISRDNSKNTVYLQMNSLRPEDTAVYYCAAGLQYNRAADRVPVGAVYWGQGTLVTVSSGGGGSGGGGSGGGGSGGGGSGGGGSGGGGSGGGGSEVQLLESGGGLVQPGGSLRLSCAASGRTFGSIRVGWFRQAPGKGREFVSAINRNDGTTYYADSVKGRFTISRDNSKNTVYLQMNSLRPEDTAVYYCAAGLQYNRAADRVPVGAVYWGQGTLVTVSSGGGGSGGGGSGGGGSGGGGSGGGGSGGGGSGGGGSEVQLLESGGGLVQPGGSLRLSCAASGRTFGSIRVGWFRQAPGKGREFVSAINRNDGTTYYADSVKGRFTISRDNSKNTVYLQMNSLRPEDTAVYYCAAGLQYNRAADRVPVGAVYWGQGTLVTVSS
[5]
  IC50, cell survival, A549: > 10 nM
  IC50, cell survival, BxPC-3: 0.0292 nM
  IC50, cell survival, Colo205: 0.0034 nM
  IC50, cell survival, H226: 0.129 nM
  IC50, cell survival, H2122: 0.0051 nM
  IC50, cell survival, Jurkat (72): 0.0172 nM
  IC50, cell survival, M30: > 10 nM
  IC50, cell survival, MiaPaCa-2: 0.0185 nM
  IC50, cell survival, Panc-1: 0.229 nM
  IC50, cell survival, T24: 0.0447 nM
[6]
  IC50, cell survival, Colo205: 0.012 nM
  IC50, cell survival, Jurkat: 0.0026 nM

B3: 11H6-hu tetra (11H6 hu tetramer) (VHH)
chain: EVQLLESGGGLVQPGGSLRLSCAASGTFDKINNMGWYRQAPGKQRDLVAQITPGGITDYADSVKGRFTISRDNSKNTLYLQMNSLRPEDTAVYYCNAEILKRAYIDVYVNYWGQGTLVTVSSGGGGSGGGGSGGGGSGGGGSGGGGSGGGGSGGGGSEVQLLESGGGLVQPGGSLRLSCAASGTFDKINNMGWYRQAPGKQRDLVAQITPGGITDYADSVKGRFTISRDNSKNTLYLQMNSLRPEDTAVYYCNAEILKRAYIDVYVNYWGQGTLVTVSSGGGGSGGGGSGGGGSGGGGSGGGGSGGGGSGGGGSEVQLLESGGGLVQPGGSLRLSCAASGTFDKINNMGWYRQAPGKQRDLVAQITPGGITDYADSVKGRFTISRDNSKNTLYLQMNSLRPEDTAVYYCNAEILKRAYIDVYVNYWGQGTLVTVSSGGGGSGGGGSGGGGSGGGGSGGGGSGGGGSGGGGSEVQLLESGGGLVQPGGSLRLSCAASGTFDKINNMGWYRQAPGKQRDLVAQITPGGITDYADSVKGRFTISRDNSKNTLYLQMNSLRPEDTAVYYCNAEILKRAYIDVYVNYWGQGTLVTVSS
[7]
  IC50, cell survival, Colo205: 0.02 nM
  IC50, cell survival, Jurkat: 0.016 nM
[5]
  IC50, cell survival, A549: > 10 nM
  IC50, cell survival, BxPC-3: 0.0154 nM
  IC50, cell survival, Colo205: 0.0036 nM
  IC50, cell survival, H226: 0.172 nM
  IC50, cell survival, H2122: 0.0041 nM
  IC50, cell survival, Jurkat (72): 0.0007 nM
  IC50, cell survival, M30: > 10 nM
  IC50, cell survival, MiaPaCa-2: 0.0117 nM
  IC50, cell survival, Panc-1: 0.232 nM
  IC50, cell survival, T24: 0.0222 nM

B4: 11H6 (monomeric anti-DR5 NB construct) (VHH)
VHH: EVQLVESGGGLVQPGGSLRLSCAASGTFDKINNMGWYRQAPGKQRDLVAQITPGGITDYADSVKGRFTISRDNAKDTMYLQMNSLKPEDTAVYFCNAEILKRAYIDVYVNYWGQGTQVTVSS
notes: llama VHH; periplasmic extract or purified monovalent material from E. coli; also called 11H6 parent; wild type 11H6; not shown: C-terminal c-myc tag and (His)6 tag coded by the vector
[8]
  mean count fluorescence: 292
[9]
  ABS405 nm: 0.133 ABS405 nm
[10]
  mean count fluorescence: 723
[11]
  Kd: 320 nM
[4]
  Kd: 9200 nM

B5: 11H6-hu (monovalent humanized variant of 11H6) (VHH)
VHH: B4 VHH with V5L, A74S, D76N, M78L, K86R, F94Y, Q117L
notes: purified monovalent material
[11]
  Kd: 170 nM

B6: 4E6 hu, pAX111-4E6 (monomeric NB construct for crystallography) (VHH)
VHH: EVQLLESGGGLVQPGGSLRLSCAASGRTFGSIRVGWFRQAPGKGREFVSAINRNDGTTYYADSVKGRFTISRDNSKNTVYLQMNSLRPEDTAVYYCAAGLQYNRAADRVPVGAVYWGQGTLVTVSS
[12]
  binding result: binds

B7: 11H6 hu, pAX100-11H6 (monomeric NB construct for crystallography) (VHH)
VHH: B4 VHH with V5L, A74S, D76N, M78L, K86R, F94Y, Q117L
notes: the complex with DR5-54 was treated with trypsin before crystallization
[13]
  binding result: binds

B8: 4E6-hx (monovalent; humanized FR regions of 4E6-Hu with the CDR3 of 4E6), produced in E. coli (VHH)
VHH: B6 VHH with A105S
[14]
  Kd: 7.1 nM
[15]
  Kd: 0.34 nM
[16]
  Kd: 3.4 nM
